Laboratory results: a protein production outcome set (Wang et al. 2014)

experiment: label from the status in PepcDB records

Sequence | protein production
MGPVPEFSVIIPARNEAAYLPGTLRALERQTLAPAEVIVVDNASRDQTAQIARSWGAQVLSCPEGGVARARQLGLDTARSSWVATTDADSLPAPGWLAAYAQAALLAGGYPEVEAYEDVILGQNLARLGEIGYVPRALVETSARRLDRGVGPFLIQHLRNLTGHTRGLEHHHHHH | failed
MGQNQFRWSNEQLREHVEVIDGTRSPHIVLRNATYLNSYIREWMQANIWIYDDRIIYVGEKLPEQLHECEVIDCDGKYVVPSYIEPHAHPYQLYNPETLANHAMQFGTTTFINDNLTLFFTLKRELEHHHHHH | failed
MGQPQQPEGAGAEEAAAGTDSGTDTGTGAGAGAATGASATRPPLRVGMVGYAFMGAAHSQGWRTAGRVFDLPLNPVLAAICGRDADAVRLAADRHGWASTETDWRTLVERDDIDLVDICTPGDSHSEIALAALAAGKHVLCEKPLANTVEEAQAMTRAAEEAAARGQLAMVGFNYRRVPATALARRMVAEGRVGRLRHLRVTYLQDWLVDPKAPLTWRLRKELAGSGALGDLGAHIVDLAQYLSGERIAGVSALTETFVRERPLPAGAPRGLSAGSADGVTGQVTVDDAAVFTGRLTSGALVSFEATRYATGRKNALRIELNGERGSLAFDLERLNELSYHDGTEPGEHAGFRRILVTEPEHPYLEAWWPPGHGLGYEHTFVHQARDLVHAVAEGRGPEPSFADGLQVQRVLAAVEESAEKNSVYTPITP | failed
MGQTALARGSSSTPTSQALYSDFSPPEGLEELLSAPPPDLVAQRHHGWNPKDCSENIDVKEGGLCFERRPVAQSTDGVRGKRGYSRGLHAWEISWPLEQRGTHAVVGVATALAPLQADHYAALLGSNSESWGWDIGRGKLYHQSKGLEAPQYPAGPQGEQLVVPERLLVVLDMEEGTLGYSIGGTYLGPAFRGLKGRTLYPSVSAVWGQCQVRIRYMGERRVEEPQSLLHLSRLCVRHALGDTRLGQISTLPLPPAMKRYLLYK | failed
MGRIAWVVRADRPCAATNTHINEPPRRALTSGPGVFIRRTVAAAATRRRYPSAMAIHADTHDDLRLFQTGEHACGYWSDRRARDLVLDPHDPRLGAIYPQALAWGFRRSGDLVYRPHCERCRACVPVRIAVDAFHPDRSQRRCLTRNQDLVVRVVAAERTDEQLALYRQYLKYRHPGGGMDEHGATEFDQFLIGGWSHGRFLEIREPAIAHLPGRLLAVAVTDVTEHALSAIYTFYAPEAAARSLGTFAILQQIQWAQRERRAHVYLGYWIEGHAKMNYKRRFSALEAYDGRHWCDLPAHPSGT | failed
MGRRFDHLGDVEAFIIVAEKGSMTEAAVALATTASVLSRAITRLETRLGAQLMRRTTRRLNLTDEGRAYLEQARAAFSMIDDAERAIQGPTGASLTGHVRISVPTTYGHHRLPAMLERFMQAYPEVQIELSITNRNVDLVAEGYDLAIRLGPLPDSGLVARKLEDASLRLVAAPHYLERAGMPQDVEDLAEHQCLPFVMPSTGRCAPWLFHVDGRDLDWTPPGRIQVFDDVLGVVSLAESGLGICQIYDFIIRDRVKEGRLVEVLDHAQGRFRPFSLIFAPHRRLSAATRTLIDFLVEK | failed
MGRYILGITVLVTVVVAPLEAGLSSVALLALLAAFGIGVQVIAPWFIPLVRSVDTPDDQTTETLNRLRERAGLTVRDVRVLDTEQEGTANVIVRGAPGYRRLFVTSTFLDVFDDEMATALLAVQAGRQEARVRARLIGGLLIALVPVFAALADIGPLWPLVGASLGLLVVTLWVTRRGVRAADDYAAEGVGPDTVADALERYADVHDMEPPRRRLANPFSKSPPLGNRIDRLREQAGE | failed
MGSEVVNPTKPRFDLSMSKRTRKPWSSLINDMHHHAICTQSSQPKPDKEQEQIEDKEIDRKSLNNLMRCDEKLNGEADVNNKSSLDQHFEDGEGIKPTMQLVVKKEKQGGLKFKGLSQHIFRLIEFLLSYRTDY | failed
MGSGHILGTSRLPKETWMANAECFVLMLPLRECAGRCHVCLKTAYTMRHRLIECLSAYSPSFKTGRGCGCELDETYFPESFKGNHTKGSFTMPRHSRHRGKQVHRRGLSREQICVMTGVNDSNETFLQVSGRGILSRKRAMDVLRDRIASASVVATDKASAYVDVLAELEVDAHTAYDSKDPSEGTINRINTVHSLLDTFMKPFKGVSTKHLGTYLAWFKWCRTFMATDSGTAERTVARQLANGVCRSRIHDMFNVLPP | failed
MGSGKERDTFVYLAKLSEQAERYEEMVESMKSVAKLNVDLTVEERNLLSVGYKNVIGSRRASWRIFSSIEQKEAVKGNDVNVKRIKEYMEKVELELSNICIDIMSVLDEHLIPSASEGESTVFFNKMKGDYYRYLAEFKSGNERKEAADQSLKAYEIATTAAEAKLPPTHPIRLGLALNFSVFYYEIMNAPERACHLAKQAFDEAISELDTLNEESYKDSTLIMQLLRDNLTLWTSDISEEGGDDAHKTNGSAKPGAGGDDAE | failed
MGSGSMLQSWNLKTSKRTGSFDAKSSINAVAISPDGNTLATGIRDNAIKLWNINDGKLIHTLTGHQGQVRTVAFSPDGTLLASGSSDGTVKLWNATTGKEINTFTAHKEQVWSVAFNPDGKTLASTGQDGSVKIWGVSPQLEHHHHHH | not failed
MGSLERSKKKAQVWKKAVIHFSLCFVMGFFTGFAPAGKASFFSNFETTSYTSTKSPIPPQPFENATYTQHSLLNRTLINSQSQAPAPAESREAEGETRSLSEKEDENQVKVTPRGLVIVVTPIITKDRYKNVLLRRMANTLRLVPPPLLWIVVEKHSDGEEKSSSTMLRKTGIMYRRIVFKEDFTSLESELDHQRNLALRHIEHHKLSGIVHFAGLNNIYDLDFFVKIRDIEVFGTWPMALLSANRKRVVVEGPVCESSQVLGWHLRKINNETETKPPIHISSFAFNSSILWDPERWGRPSSVEGTKQDSIKYVKQVVLEDDTKLKGLPAQDCSKIMLWRLKFPTRTRLST | failed
MGSLYTSELSRAVSESVAAALQRSFQGELRSASALGSGWSTSAELLNRNDSTERYFVKLSEPQAVSMFSAEFEGIQAMAESETVRVPAPICYGNTAERSFIVLEYLELGGIGNEAVYRDFGEKLAAMHRCSSGGRGYGWHRGNTIGSTPQLNTWMHSWADFFVENRLRYQLKLARSRQGGRLRNEDALLQRVHSVLQEHEIQHQVTPSLVHGDLWTGNVATLRNQNEVVIFDPATYYGDREVDLAMTELFGRLPRAFYQAYDASWPLPKGYREKRRVIYNLYHILNHGALFGGGYYDQAQSMIETILR | not failed
MGSMDQSIAVKSPLTYAEALANTIMNTYTVEELPPANRWHYHQGVFLCGVLRLWEATGEKRYFEYAKAYADLLIDDNGNLLFRRDELDAIQAGLILFPLYEQTKDERYVKAAKRLRSLYGTLNRTSEGGFWHKDGYPYQMWLDGLYMGGPFALKYANLKQETELFDQVVLQESLMRKHTKDAKTGLFYHAWDEAKKMPWANEETGCSPEFWARSIGWYVMSLADMIEELPKKHPNRHVWKNTLQDMIKSICRYQDKETGLWYQIVDKGDRSDNWLESSGSCLYMYAIAKGINKGYLDRAYETTLLKAYQGLIQHKTETSEDGAFLVKDICVGTSAGFYDYYVSRERSTNDLHGAGAFILAMTELEPLFRSAGK | not failed
MGSSHHHHHHSSGENLYFQGHMIYPYKGKTPQIAASAFIADYVTITGDVVIGEETSIWFNTVIRGDVAPTVIGNRVNIQDNSILHQSPNNPLIIEDGVTVGHQVILHSAIVRKNALIGMGSIILDRAEIGEGAFIGAGSLVPPGKKIPPNTLALGRPAKVVRELTEDDIREMERIRREYVEKGQYYKALQQQRTSCADKKELP | not failed
MGSSHHHHHHSSGLVPRGSHRSEFSSRSGYGEYVQQTLQPGMRVRMLDDYEEISAGDEGEFRQSNNGIPPVQVFWQSTGRTYWVHWHMLEILGPEEATEDKASAAVEKGAGATVLGTAFPS | not failed
MGSSHHHHHHSSGRENLYFQGMAATAREDGASGQERGQRGCEHYDRGCLLKAPCCDKLYTCRLCHDNNEDHQLDRFKVKEVQCINCEKIQHAQQTCEECSTLFGEYYCDICHLFDKDKKQYHCENCGICRIGPKEDFFHCLKCNLCLAMNLQGRHKCIENVSRQNCPICLEDIHTSRVVAHVLPCGHLLHRTCYEEMLKEGYRCPLCMHSALDMTRYWRQLDDEVAQTPMPSEYQNMTVDILCNDCNGRSTVQFHILGMKCKICESYNTAQAGGRRISLDQQ | failed
MGSSHHHHHHSSGRENLYFQGMRLKSEMFVSALIRRVFAAGGFAAVEKKGAEAAGAIFVRQRLRDGRENLYGPAPQSFADDEDIMRAERRFETRLAGVEGEEIAALLERERRFDSDLWVVEIETDEIGTLLTLVDQPQA | not failed
MGSSLPFDLILEILQRTPAESLLRFKSTCKKWYELISNDKRFMYKHLDKSTKRFLRIENRERVQILDPVTEILAVSTIPNELRHKYFTLIHCDGLMLGMCYEELGSDPNLAVWNPVMRKIKWIKPSPPLVCYWGSDYLGFGYDKTFRDNYKILRFTYLGDDDDDESYPKCQIYEFNSGSWRSIEAKFDGEIDVEVDGVSVNGSMYWIELQEKKNFILSFDFSKETFNRICDSPLYWDIKRLGCFNGDRLSLLQQNEATREIHVSVTNKLSDEVVSFSRYFSVTLPDIPLFRSIDILPLPGCFIGKNRNIIAWCEQLVGKYDDHTSIILYEIGEGGVTKRIRTGRHEADEDYNDLDNCSYVYVPSLIPVPE | failed
MGTDTAQARPTDEAAERRREQRGWYFYDWACSVYSTSVLTVFLGPYLTSVAKSAADADGYVHPLGVPVRAGSFFAYSVSLSVIVAVVVMPLVGAAADRTGRKKPLLAVTAYVGAAATAGMFFLDGDRYLLGGVLLLVANAAQAVSMMLYNSYLPQIAPPEERDAVSSRGWAFGYAAGALVLIANLVLFLAHDSFGVSESTAVRICLASAGLWWGAFTLIPLKRLRDRGSPVKEITAPGPRRLAATVRDMRRHPLTLSFLLAYLIYNDGIQTVISQASVYGSEELGLSQSTLIVAVLLVQVLAVGGALGMGRLARTYGARRTILGSLVAWTVTLGAGYFLPAGAPFWFFVLASGIGLVLGGSQALSRSLFSHLVPAGKEAEYFSAYEMSDRGMSWLGPLLFGLTYQLTGSYRDAIISLVAFFVVGFVLLARVPVRQAVRDAGNSVPERI | failed
MGTEATEQVSWGHYSGDEEDAYSAEPLPELCYKADVQAFSRAFQPSVSLTVAALGLAGNGLVLATHLAARRAARSPTSAHLLQLALADLLLALTLPFAAAGALQGWSLGSATCRTISGLYSASFHAGFLFLACISADRYVAIARALPAGPRPSTPGRAHLVSVIVWLLSLLLALPALLFSQDGQREGQRRCRLIFPEGLTQTVKGASAVAQVALGFALPLGVMVACYALLGRTLLAARGPERRRALRVVVALVAAFVVLQLPYSLALLLDTADLLAARERSCPASKRKDVALLVTSGLALARCGLNPVLYAFLGLRFRQDLRRLLRGGSCPSGPQPRRGCPRRPRLSSCSAPTETHSLSWDN | failed
MGTETVVHDQARWAMAAMERRLAVAKAQLLQQQQQKNEKDKKGTSDVDVSMKESHQADSLPTPSKTSIKKVDPKDDDSVAYTKLSHPVDENLLATNVKFSSAKGTIVDKVLHNLLRSGDSAQKYLQGTKSVKLDNYILLDNFVQSRSSASGSKKASQKDSKRSKSRMSMKRLKKSGALHIPKDLQKFDLFKPMHGMWESYMMKLIKVTGKIQLSLTLLSADLHGAFMFGNPSFFHKSVVLGYDLLSLTHFPKLNFSQPILLVTVAECKIASFTGVQGIMVRETSETFGIITRDDKFRGILKLFSPIYLP | failed
MGTFIEPSKVTLKDYLNHWLEIKSMSIEKSTFAGYKAFINQHVIPSIGMVTLHKLNVIHIQKCYKTAIDKGIANNSILLMHRILKSALNLAVKQNIISRNPADFAEIPLEHHHHHH | failed
MGTKERILEVSKELFFEKGYQGTSVEEIVKRANLSKGAFYFHFKSKEELITEIIERTHKKIISLFEENKEKTPEELLEMFLEVLYREKKVVYIFLFDLLCSEKFRNIYFEKIEDAKRRFEKFLEKHFPSKAEILSEIILGFLRQLILHYVIKEERELPFLKEKLREGLKLIFEGVKKCG | not failed
